This passage reports activity results from patent US20170058268.

Holding throughout (experiment): cell_activity
What all share (conditions): E. coli, bisulfite

For series [1], the target named is Split M.SssI-HS1/HS2 variant PFCSY K297P,N299C,E301Y (Spiroplasma sp. (M.SssI)?) (UniProt P15840+P15840).
Series [2] addresses Split M.SssI-HS1/HS2 variant CFESY K297C,N299E,E301Y (Spiroplasma sp. (M.SssI)?) (UniProt P15840).
Series [3] deals with Split M.SssI (1-272)-HS1 / HS2-M.SssI (273-386), 'wild-type' KFNSE at 297-301 (Spiroplasma sp. (M.SssI)?) (UniProt P15840).
Sequence of Split M.SssI (1-272)-HS1 / HS2-M.SssI (273-386), 'wild-type' KFNSE at 297-301 (Spiroplasma sp. (M.SssI)?) (P15840 other isoform, or with tags, fused parts or gaps, chain 1 of 2): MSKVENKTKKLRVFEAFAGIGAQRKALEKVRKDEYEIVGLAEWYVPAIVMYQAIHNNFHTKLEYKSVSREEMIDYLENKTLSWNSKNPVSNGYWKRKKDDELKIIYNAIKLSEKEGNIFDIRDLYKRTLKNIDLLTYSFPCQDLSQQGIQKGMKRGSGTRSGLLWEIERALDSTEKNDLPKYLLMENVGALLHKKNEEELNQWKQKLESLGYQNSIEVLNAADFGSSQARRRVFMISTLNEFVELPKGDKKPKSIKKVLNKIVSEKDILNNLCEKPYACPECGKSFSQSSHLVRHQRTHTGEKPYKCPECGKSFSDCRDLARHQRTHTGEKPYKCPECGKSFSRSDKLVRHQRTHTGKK
Sequence of Split M.SssI (1-272)-HS1 / HS2-M.SssI (273-386), 'wild-type' KFNSE at 297-301 (Spiroplasma sp. (M.SssI)?) (P15840 other isoform, or with tags, fused parts or gaps, chain 2 of 2): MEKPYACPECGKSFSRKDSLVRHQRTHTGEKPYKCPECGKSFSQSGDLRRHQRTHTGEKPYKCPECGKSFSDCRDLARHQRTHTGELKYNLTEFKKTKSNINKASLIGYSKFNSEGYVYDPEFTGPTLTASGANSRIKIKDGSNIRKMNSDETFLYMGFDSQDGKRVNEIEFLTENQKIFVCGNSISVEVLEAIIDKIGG

Sequence of Split M.SssI-HS1/HS2 variant PFCSY K297P,N299C,E301Y (Spiroplasma sp. (M.SssI)?) (P15840 whole entry, stated change not applied, chain 1 of 2): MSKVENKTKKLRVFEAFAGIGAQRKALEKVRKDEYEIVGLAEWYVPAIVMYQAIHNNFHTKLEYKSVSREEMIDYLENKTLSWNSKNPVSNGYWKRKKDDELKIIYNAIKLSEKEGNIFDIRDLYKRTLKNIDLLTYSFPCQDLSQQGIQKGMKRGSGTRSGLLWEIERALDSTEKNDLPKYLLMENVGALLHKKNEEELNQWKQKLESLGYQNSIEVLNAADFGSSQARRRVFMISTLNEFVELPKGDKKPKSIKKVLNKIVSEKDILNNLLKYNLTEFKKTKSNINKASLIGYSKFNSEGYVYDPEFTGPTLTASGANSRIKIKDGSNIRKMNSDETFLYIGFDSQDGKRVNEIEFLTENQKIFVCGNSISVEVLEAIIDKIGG
Sequence of Split M.SssI-HS1/HS2 variant PFCSY K297P,N299C,E301Y (Spiroplasma sp. (M.SssI)?) (P15840 whole entry, stated change not applied, chain 2 of 2): as the sequence (P15840 whole entry, stated change not applied, chain 1 of 2) above
Sequence of Split M.SssI-HS1/HS2 variant CFESY K297C,N299E,E301Y (Spiroplasma sp. (M.SssI)?) (P15840 other isoform, or with tags, fused parts or gaps K297C N299E E301Y, chain 1 of 2): as the sequence (P15840 other isoform, or with tags, fused parts or gaps, chain 1 of 2) above
Sequence of Split M.SssI-HS1/HS2 variant CFESY K297C,N299E,E301Y (Spiroplasma sp. (M.SssI)?) (P15840 other isoform, or with tags, fused parts or gaps K297C N299E E301Y, chain 2 of 2): as the sequence (P15840 other isoform, or with tags, fused parts or gaps, chain 2 of 2) above, with K111C, N113E, E115Y counted along it

On to “HS1/HS2 target site (FspI CpG flanked by HS1 and HS2 sites, plasmid)”, for which the activity in series [1] is 78.9 % methylated; in series [2] (70-80% by restriction protection, also target-only methylation in HEK293), 42.1 % methylated; in series [3], 94.1 % methylated.
As to “Non-target site (SnaBI CpG or surrounding CpGs, no ZF sites, plasmid)”, the activity in series [1] (all off-target CpGs) was 0.84 % methylated; in series [2] (all off-target CpGs), 0.71 % methylated; in series [3] (all off-target CpGs), 49.5 % methylated.
